Measurements reported in publication PMC3248148, “Hsp90 can Accommodate the Simultaneous Binding of the FKBP52 and HOP Proteins” (Oncotarget, 2011).

Legend:
[1] = biological target: the molecule itself; assay: SEC; HiPrep Sephacryl S-200; each protein alone; 50mM Hepes, 150mM NaCl, 50mM KCl, 10mM MgCl2, 1mM DTT, pH 7.5; molecular weight interpolated from standards
[2] = biological target: T1, human Hsp90α (human, UniProt P07900 1-732); assay: native gel or EMSA; 7.5% Native-PAGE, no detergents, reducing or denaturing agents in the gel buffers; mixtures incubated at 30°C for 60 minutes; with and without 5mM ATP, 20mM Na2MoO4; with and without 0.01% dodecyl-maltopyranoside; details: both partners purified
T1 construct: Hsp90α, human, expressed from pET28b-Hsp90α; Dimer by Sephacryl S-200 SEC; also called Hsp90 dimer; source: E. coli BL21 (DE3), purified (Ni2+ HisTrap, Q-Sepharose, Sephacryl S-200)

[3] = biological target: T1, human Hsp90α; assay: co-IP; Hsp90α bait held on monoclonal Hsp90 (H90-10) antibody/Protein A-Sepharose beads; p23, FKBP52 and HOP added in the 2:1:2:2 molar ratios; 30°C, 60 minutes; without ATP, with 5mM ATP, 20mM Na2MoO4, and with ATP plus 0.01% dodecyl-maltopyranoside; SDS-PAGE; details: both partners purified

| stoichiometry N [2] | binding result [3] | Binder | stoichiometry N [1] |
| --- | --- | --- | --- |
| 0.5 FKBP52 per Hsp90 chain (1:2) |  | human FKBP52 (52 kDa immunophilin FK506-binding protein) (natural protein, UniProt Q02790 1-459, looked up, FKBP52, human, expressed from pET28b-FKBP52; Dimer in solution by SEC and DLS; The gene is printed as Fkbp4, of the mouse; source: E. coli BL21 (DE3), purified (Ni2+ HisTrap, Q-Sepharose, Sephacryl S-200)) MTAEEMKATESGAQSAPLPMEGVDISPKQDEGVLKVIKREGTGTEMPMIGDRVFVHYTGWLLDGTKFDSSLDRKDKFSFDLGKGEVIKAWDIAIATMKVGEVCHITCKPEYAYGSAGSPPKIPPNATLVFEVELFEFKGEDLTEEEDGGIIRRIQTRGEGYAKPNEGAIVEVALEGYYKDKLFDQRELRFEIGEGENLDLPYGLERAIQRMEKGEHSIVYLKPSYAFGSVGKEKFQIPPNAELKYELHLKSFEKAKESWEMNSEEKLEQSTIVKERGTVYFKEGKYKQALLQYKKIVSWLEYESSFSNEEAQKAQALRLASHLNLAMCHLKLQAFSAAIESCNKALELDSNNEKGLFRRGEAHLAVNDFELARADFQKVLQLYPNNKAAKTQLAVCQQRIRRQLAREKKLYANMFERLAEEENKAKAEASSGDHPTDTEMKEEQKSNTAGSQSQVETEA | 2 |
|  | binds | human p23 co-chaperone (natural protein, UniProt Q15185 1-160, looked up, p23 co-chaperone, human, untagged, expressed from pET23-p23; Eluted from Sephacryl S-200 as dimer and monomer; monomer by DLS; source: E. coli BL21 (DE3), purified (DEAE FF, Q-Sepharose, Sephacryl S-200)) MQPASAKWYDRRDYVFIEFCVEDSKDVNVNFEKSKLTFSCLGGSDNFKHLNEIDLFHCIDPNDSKHKRTDRSILCCLRKGESGQSWPRLTKERAKLNWLSVDFNNWKDWEDDSDEDMSNFDRFSEMMNNMGGDEDVDLPEVDGADDDSQDSDDEKMPDLE |  |
